According to patent publication US20190322762A1:

How the values were obtained:
[1] = target: ENO1 with amino acid residues 297 to 434 deleted (human) (UniProt P06733); assay: ELISA, ENO1 deletion mutant Δ297-434 coated, 10 microgram of EN10 mAb
[2] = target: ENO1 mutant 1-297 (human) (UniProt P06733); assay: ELISA, 400 ng protein coated, 10 microgram of EN10 mAb
[3] = target: ENO1 mutant 1-189 (human) (UniProt P06733); assay: as above

Sequence of ENO1 with amino acid residues 297 to 434 deleted (human) (P06733 1-296, stated change not applied): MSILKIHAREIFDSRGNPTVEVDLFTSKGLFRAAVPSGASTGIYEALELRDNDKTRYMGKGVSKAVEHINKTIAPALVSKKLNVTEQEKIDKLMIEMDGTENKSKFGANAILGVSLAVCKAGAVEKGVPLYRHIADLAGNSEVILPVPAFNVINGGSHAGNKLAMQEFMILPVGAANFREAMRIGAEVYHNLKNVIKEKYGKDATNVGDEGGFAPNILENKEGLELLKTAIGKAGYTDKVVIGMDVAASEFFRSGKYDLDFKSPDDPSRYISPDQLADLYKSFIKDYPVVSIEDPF

OD450 [1]: 0.47
OD405 [2]: 1.56 OD405
OD405 as percent of that of the wild type ENO1 [2]: 39%
OD405 [3]: 1.43 OD405
OD405 as percent of that of the wild type ENO1 [3]: 42%
B1: EN10 mAb (antibody, V domains shown)
VH: EVQLQQSGPELVKPGASVKMSCKASGYTFTSCVMNWVKQKPGQGLEWIGYINPYNDGTKYNEKFKGKATLTSDKSSSTAYMELSSLTSEDSAVYYCAREGFYYGNFDNWGQGTTLTVSS
VL: DIQMTQSPASLSASVGETVTITCRASENIYSYLTWYQQKQGKSPQLLVYNAKTLPEGVPSRFSGSGSGTQFSLKINSLQPEDFGSYYCQHHYGTPYTFGGGTKLEITR
